The results in this text go back to publication PMC11098746 (2024).

In this experiment the target is Circumsporozoite protein (CSP) (Plasmodium falciparum (isolate 3D7), UniProt Q7K740). Briefly: AVEXIS screen signal:noise (double-corrected).

No end group written: not given here.

Sequence of Circumsporozoite protein (CSP) (Q7K740 19-374): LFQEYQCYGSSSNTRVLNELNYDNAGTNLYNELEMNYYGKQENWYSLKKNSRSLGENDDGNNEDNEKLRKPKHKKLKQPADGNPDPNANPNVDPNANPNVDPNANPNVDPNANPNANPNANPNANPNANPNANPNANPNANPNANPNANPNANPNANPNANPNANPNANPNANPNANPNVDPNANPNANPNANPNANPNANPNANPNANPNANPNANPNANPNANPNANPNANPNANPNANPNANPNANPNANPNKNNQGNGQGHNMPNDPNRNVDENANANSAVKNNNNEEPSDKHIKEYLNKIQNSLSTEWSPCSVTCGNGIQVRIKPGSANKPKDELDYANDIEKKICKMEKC

As to MAIHKALVMCLGLPLFLFPGAWAQGHVPPGCSQGLNPLYYNLCDRSGAWG (cysteine pairing not given here; also: human Fc-tagged dimer) [ADP328], the binding score amounted to 1.01.

B1: ADP370 (protein)
chain: MICQKFCVVLLHWEFIYVITAFNLSYPITPWRFKLSCMPPNSTYDYFLLPAGLSKNTSNSNGHYETAVEPKFNSSGTHFSNLSKTTFHCCFRSEQDRNCSLCADNIEGKTFVSTVNSLVFQQIDANWNIQCWLKGDLKLFICYVESLFKNLFRNYNYKVHLLYVLPEVLEDSPLVPQKGSFQMVHCNCSVHECCECLVPVPTAKLNDTLLMCLKITSGGVIFQSPLMSVQPINMVKPDPPLGLHMEITDDGNLKISWSSPPLVPFPLQYQVKYSENSTTVIREADKIVSATSLLVDSILPGSSYEVQVRGKRLDGPGIWSDWSTPRVFTTQDVIYFPPKILTSVGSNVSFHCIYKKENKIVPSKEIVWWMNLAEKIPQSQYDVVSDHVSKVTFFNLNETKPRGKFTYDAVYCCNEHECHHRYAELYVIDVNINISCETDGYLTKMTCRWSTSTIQSLAESTLQLRYHRSSLYCSDIPSIHPISEPKDCYLQSDGFYECIFQPIFLLSGYTMWIRINHSLGSLDSPPTCVLPDSVVKPLPPSSVKAEITINIGLLKISWEKPVFPENNLQFQIRYGLSGKEVQWKMYEVYDAKSKSVSLPVPDLCAVYAVQVRCKRLDGLGYWSNWSNPAYTVVMDIKVPMRGPEFWRIINGDTMKKEKNVTLLWKPLMKNDSLCSVQRYVINHHTSCNGTWSEDVGNHTKFTFLWTEQAHTVTVLAINSIGASVANFNLTFSWPMSKVNIVQSLSAYPLNSSCVIVSWILSPSDYKLMYFIIEWKNLNEDGEIKWLRISSSVKKYYIHDHFIPIEKYQFSLYPIFMEGVGKPKIINSFTQDDIEKHQSDA
modifications: bait human Fc-tagged dimer
B1 displayed a binding score of 1.01.

B2: ADP356 (protein)
chain: MAPLPGALGVAAAAALWLLLLLLPRTRADEHEHTYQDKEEVVLWMNTVGPYHNRQETYKYFSLPFCVGSKKSISHYHETLGEALQGVELEFSGLDIKFKDDVMPATYCEIDLDKEKRDAFVYAIKNHYWYQMYIDDLPIWGIVGEADENGEDYYLWTYKKLEIGFNGNRIVDVNLTSEGKVKLVPNTKIQMSYSVKWKKSDVKFEDRFDKYLDPS
modifications: bait human Fc-tagged dimer
Molecule B2 showed a binding score of 1.

B3: ADP360 (protein)
chain: MGAARGSPARPRRLPLLSVLLLPLLGGTQTAIVFIKQPSSQDALQGRRALLRCEVEAPGPVHVYWLLDGAPVQDTERRFAQGSSLSFAAVDRLQDSGTFQCVARDDVTGEEARSANASFNIKWIEAGPVVLKHPASEAEIQPQTQVTLRCHIDGHPRPTYQWFRDGTPLSDGQSNHTVSSKERNLTLRPAGPEHSGLYSCCAHSAFGQACSSQNFTLSIADESFARVVLAPQDVVVARYEEAMFHCQFSAQPPPSLQWLFEDETPITNRSRPPHLRRATVFANGSLLLTQVRPRNAGIYRCIGQGQRGPPIILEATLHLAEIEDMPLFEPRVFTAGSEERVTCLPPKGLPEPSVWWEHAGVRLPTHGRVYQKGHELVLANIAESDAGVYTCHAANLAGQRRQDVNITVATVPSWLKKPQDSQLEEGKPGYLDCLTQATPKPTVVWYRNQMLISEDSRFEVFKNGTLRINSVEVYDGTWYRCMSSTPAGSIEAQARVQVLEKLKFTPPPQPQQCMEFDKEATVPCSATGREKPTIKWERADGSSLPEWVTDNAGTLHFARVTRDDAGNYTCIASNGPQGQIRAHVQLTVAVFITFKVEPERTTVYQGHTALLQCEAQGDPKPLIQWKGKDRILDPTKLGPRMHIFQNGSLVIHDVAPEDSGRYTCIAGNSCNIKHTEAPLYVVDKPVPEESEGPGSPPP
modifications: bait human Fc-tagged dimer
In turn, B3 returned a binding score of 0.739.

B4: ADP350 (protein)
chain: MAAAGRLPSSWALFSPLLAGLALLGVGPVPARALHNVTAELFGAEAWGTLAAFGDLNSDKQTDLFVLRERNDLIVFLADQNAPYFKPKVKVSFKNHSALITSVVPGDYDGDSQMDVLLTYLPKNYAKSELGAVIFWGQNQTLDPNNMTILNRTFQDEPLIMDFNGDLIPDIFGITNESNQPQILLGGNLSWHPALTTTSKMRIPHSHAFIDLTEDFTADLFLTTLNATTSTFQFEIWENLDGNFSVSTILEKPQNMMVVGQSAFADFDGDGHMDHLLPGCEDKNCQKSTIYLVRSGMKQWVPVLQDFSNKGTLWGFVPFVDEQQPTEIPIPITLHIGDYNMDGYPDALVILKNTSGSNQQAFLLENVPCNNASCEEARRMFKVYWELTDLNQIKDAMVATFFDIYEDGILDIVVLSKGYTKNDFAIHTLKNNFEADAYFVKVIVLSGLCSNDCPRKITPFGVNQPGPYIMYTTVDANGYLKNGSAGQLSQSAHLALQLPYNVLGLGRSANFLDHLYVGIPRPSGEKSIRKQEWTAIIPNSQLIVIPYPHNVPRSWSAKLYLTPS
modifications: bait human Fc-tagged dimer
B4 returned a binding score of 0.985.

B5: ADP114 (protein)
chain: MVMSVGLSLLLPLWGRTFLLLLSVVMAQSHWPSEPSEAVRDWENQLEASMHSVLSDLHEAVPTVVGIPDGTAVVGRSFRVTIPTDLIASSGDIIKVSAAGKEALPSWLHWDSQSHTLEGLPLDTDKGVHYISVSATRLGANGSHIPQTSSVFSIEVYPEDHSDLQSVRTASPDPGEVVSSACAADEPVTVLTVILDADLTKMTPKQRIDLLHRMRSFSEVELHNMKLVPVVNNRLFDMSAFMAGPGNPKKVVENGALLSWKLGCSLNQNSVPDIHGVEAPAREGAMSAQLGYPVVGWHIANKKPPLPKRVRRQIHATPTPVTAIGPPTTAIQEPPSRIVPTPTSPAIAPPTETMAPPVRDPVPGKPTVTIRTRGAIIQTPTLGPIQPTRVSEAGTTVPGQIRPTMTIPGYVEPTAVATPPTTTTKKPRVSTPKPATPSTDSTTTTTRRPTKKPRTPRPVPRVTTKVSITRLETASPPTRIRTTTSGVPRGGEPNQRPELKNHIDRVDAWVGTYFEVKIPSDTFYDHEDTTTDKLKLTLKLREQQLVGEKSWVQFNSNSQLMYGLPDSSHVGKHEYFMHATDKGGLSAVDAFEIHVHRRPQGDRAPARFKAKFVGDPALVLNDIHKKIALVKKLAFAFGDRNCSTITLQNITRGSIVVEWTNNTLPLEPCPKEQIAGLSRRIAEDDGKPRPAFSNALEPDFKATSITVTGSGSCRHLQFIPVVPPRRVPSEAPPTEVPDRDPEKSSEDDVYLHT
modifications: bait human Fc-tagged dimer
On to B5, for which the binding score was found to be 1.2.

B6: ADP315 (protein)
chain: MARAHWGCCPWLVLLCACAWGHTKPVDLGGQDVRNCSTNPPYLPVTVVNTTMSLTALRQQMQTQNLSAYIIPGTDAHMNEYIGQHDERRAWITGFTGSAGTAVVTMKKAAVWTDSRYWTQAERQMDCNWELHKEVGTTPIVTWLLTEIPAGGRVGFDPFLLSIDTWESYDLALQGSNRQLVSITTNLVDLVWGSERPPVPNQPIYALQEAFTGSTWQEKVSGVRSQMQKHQKVPTAVLLSALEETAWLFNLRASDIPYNPFFYSYTLLTDSSIRLFANKSRFSSETLSYLNSSCTGPMCVQIEDYSQVRDSIQAYSLGDVRIWIGTSYTMYGIYEMIPKEKLVTDTYSPVMMTKAVKNSKEQALLKASHVRDAVAVIRYLVWLEKNVPKGTVDEFSGAEIVDKFRGEEQFSSGPSFETISASGLNAALAHYSPTKELNRKLSSDEMYLLDSGGQYWDGTTDITRTVHWGTPSAFQKEAYTRVLIGNIDLSRLIFPAATSGRMVEAFARRALWDAGLNYGHGTGHGIGNFLCVHEWPVGFQSNNIAMAKGMFTSIEPGYYKDGEFGIRLEDVALVVEAKTKYPGSYLTFEVVSFVPYDRNLIDVSLLSPEHLQYLNRYYQTIREKVGPELQRRQLLEEFEWLQQHTEPLA
modifications: bait human Fc-tagged dimer
Regarding B6, the binding score was 2.59.

B7: ADP119 (protein)
chain: MDVCVRLALWLLWGLLLHQGQSLSHSHSEKATGTSSGANSEESTAAEFCRIDKPLCHSEDEKLSFEAVRNIHKLMDDDANGDVDVEESDEFLREDLNYHDPTVKHSTFHGEDKLISVEDLWKAWKSSEVYNWTVDEVVQWLITYVELPQYEETFRKLQLSGHAMPRLAVTNTTMTGTVLKMTDRSHRQKLQLKALDTVLFGPPLLTRHNHLKD
modifications: bait human Fc-tagged dimer
Molecule B7 showed a binding score of 1.89.

B8: ADP106 (protein)
chain: MAGGRCGPQLTALLAAWIAAVAATAGPEEAALPPEQSRVQPMTASNWTLVMEGEWMLKFYAPWCPSCQQTDSEWEAFAKNGEILQISVGKVDVIQEPGLSGRFFVTTLPAFFHAKDGIFRRYRGPGIFEDLQNYILEKKWQSVEPLTGWKSPASLTMSGMAGLFSISGKIWHLHNYFTVTLGIP
modifications: bait human Fc-tagged dimer
For the molecule B8, the binding score worked out at 1.3.

B9: ADP116 (protein)
chain: MVTLQTWLVQALFIFLTTESTGELLDPCGYISPESPVVQLHSNFTAVCVLKEKCMDYFHVNANYIVWKTNHFTIPKEQYTIINRTASSVTFTDIASLNIQLTCNILTFGQLEQNVYGITIISGLPPEKPKNLSCIVNEGKKMRCEWDGGRETHLETNFTLKSEWATHKFADCKAKRDTPTSCTVDYSTVYFVNIEVWVEAENALGKVTSDHINFDPVYKVKPNPPHNLSVINSEELSSILKLTWTNPSIKSVIILKYNIQYRTKDASTWSQIPPEDTASTRSSFTVQDLKPFTEYVFRIRCMKEDGKGYWSDWSEEASGITYEDRPSKAPSFWYKIDPSHTQGYRTVQLVWKTLPPFEANGKILDYEVTLTRWKSHLQNYTVNATKLTVNLTNDRYLATLTVRNLVGKSDAAVLTIPACDFQATHPVMDLKAFPKDNMLWVEWTTPRESVKKYILEWCVLSDKAPCITDWQQEDGTVHRTYLRGNLAESKCYLITVTPVYADGPGSPESIKAYLKQAPPSKGPTVRTKKVGKNEAVLEWDQLPVDVQNGFIRNYTIFYRTIIGNETAVNVDSSHTEYTLSSLTSDTLYMVRMAAYTDEGGKDGPEFTFTTPKFAQGEIE
modifications: bait human Fc-tagged dimer
B9 registered a binding score of 1.88.

B10: ADP295 (protein)
chain: MALLLCFVLLCGVVDFARSLSITTPEEMIEKAKGETAYLPCKFTLSPEDQGPLDIEWLISPADNQKVDQVIILYSGDKIYDDYYPDLKGRVHFTSNDLKSGDASINVTNLQLSDIGTYQCKVKKAPGVANKKIHLVVLVKPSGARCYVDGSEEIGSDFKIKCEPKEGSLPLQYEWQKLSDSQKMPTSWLAEMTSSVISVKNASSEYSGTYSCTVRNRVGSDQCLLRLNVVPPSNKAG
modifications: bait human Fc-tagged dimer
B10: the binding score came to 1.09.

B11: ADP385 (protein)
chain: TIKANSEACRDGLRAVMECRNVTHLLQQELTEAQKGFQDVEAQAATCNHTVMALMASLDAEKAQGQKKVEELEGEITTLNHKLQDASAEVERLRRENQVLSVRIADKKYYPSSQDSSSAAAPQLLIVLLGLSALLQ
modifications: bait human Fc-tagged dimer
In turn, B11 yielded a binding score of 0.643.
